# Laboratory results: the RNAGym collection of RNA variant scans (doi:10.1093/molbev/msab373)
# B1: Azoarcus group I ribozyme (parent)
# chain: GUGCCUUGCGCCGGGAAACCACGCAAGGGAUGGUGUCAAAUUCGGCGAAACCUAAGCGCCCGCCCGGGCGUAUGGCAACGCCGAGCCAAGCUUCGGCGCCUGCGCCGAUGAAGGUGUAGAGACUAGACGGCACCCACCUAAGGCAAACGCUAUGGUGAAGGCAUAGUCCAGGGAGUGGCGAAAGUCACACAAACCGG
# Variants of: B1
# Assay: reverse-splicing fitness (ratio to wild type); higher = more active; in vitro selection; Mg2+ level not given
# How it was run: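 An in vitro group I ribozyme library with randomized positions was T7-transcribed and gel-purified. In triplicate, 10 pmol RNA in EPPS pH 7.5 was reacted with 50 pmoles of a 30-nt RNA substrate for 1 h at 37 °C across several added MgCl2 levels (1–48 mM), then stopped with EDTA. Products were reverse transcribed from a substrate-complementary primer, PCR-amplified and sequenced (HiSeq 4000). Fitness is a variant's read proportion after selection over that before, normalised to wild type.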
row,Variant,reverse-splicing fitness
1,GUGCCUUGCGCCGGGAAACCACGCAAGGGAUGGUGUCAAAUUCGGCGAAACCUAAGCGCCCGCCCGGGCGUAUGGCAACGCGGAGCCAAGCUUCGGCGCCUGCGCCGAUGGAGGUGUAGCGACUAGACGGCACCCACCUAAGGCUAACGAUAUGGUGAAGGCAUAGUCCAGGGAGGGGCGAAAGUCACACAAACCGG [C82G A111G A120C A145U C150A U176G],0.00773
2,GUGCCUUGCGCCGGGAAACCACGCAAGGGAUGGUGUCAAAUUCGGCGAAACCUAAGCGCCCGCCCGGGCGUAUGGCAACGCGGAGCCAAGCUUCGGCGCCUGCGCCGAUGGAGGUGUAGCGACUAGACGGCACCCACCUAAGGCUAACGGUAUGGUGAAGGCAUAGUCGAGGGAGCGGCGAAAGUCACACAAACCGG [C82G A111G A120C A145U C150G C169G U176C],0.0102
3,GUGCCUUGCGCCGGGAAACCACGCAAGGGAUGGUGUCAAAUUCGGCGAAACCUAAGCGCCCGCCCGGGCGUAUGGCAACGCGGAGCCAAGCUUCGGCGCCUGCGCCGAUGGAGGUGUAGCGACUAGACGGCACCCACCUAAGGCUAACGGUAUGGUGAAGGCAUAGUCGAGGGAGAGGCGAAAGUCACACAAACCGG [C82G A111G A120C A145U C150G C169G U176A],0.00957
4,GUGCCUUGCGCCGGGAAACCACGCAAGGGAUGGUGUCAAAUUCGGCGAAACCUAAGCGCCCGCCCGGGCGUAUGGCAACGCGGAGCCAAGCUUCGGCGCCUGCGCCGAUGGAGGUGUAGCGACUAGACGGCACCCACCUAAGGCUAACGGUAUGGUGAAGGCAUAGUCGAGGGAGGGGCGAAAGUCACACAAACCGG [C82G A111G A120C A145U C150G C169G U176G],0.00515
5,GUGCCUUGCGCCGGGAAACCACGCAAGGGAUGGUGUCAAAUUCGGCGAAACCUAAGCGCCCGCCCGGGCGUAUGGCAACGCGGAGCCAAGCUUCGGCGCCUGCGCCGAUGGAGGUGUAGCGACUAGACGGCACCCACCUAAGGCUAACGGUAUGGUGAAGGCAUAGUCCAGGGAGUGGCGAAAGUCACACAAACCGG [C82G A111G A120C A145U C150G],0.0127
6,GUGCCUUGCGCCGGGAAACCACGCAAGGGAUGGUGUCAAAUUCGGCGAAACCUAAGCGCCCGCCCGGGCGUAUGGCAACGCGGAGCCAAGCUUCGGCGCCUGCGCCGAUGGAGGUGUAGCGACUAGACGGCACCCACCUAAGGCUAACGUUAUGGUGAAGGCAUAGUCCAGGGAGUGGCGAAAGUCACACAAACCGG [C82G A111G A120C A145U C150U],0.0494
7,GUGCCUUGCGCCGGGAAACCACGCAAGGGAUGGUGUCAAAUUCGGCGAAACCUAAGCGCCCGCCCGGGCGUAUGGCAACGCGGAGCCAAGCUUCGGCGCCUGCGCCGAUGGAGGUGUAGCGACUAGACGGCACCCACCUAAGGCUAACGGUAUGGUGAAGGCAUAGUCAAGGGAGCGGCGAAAGUCACACAAACCGG [C82G A111G A120C A145U C150G C169A U176C],0.0134
8,GUGCCUUGCGCCGGGAAACCACGCAAGGGAUGGUGUCAAAUUCGGCGAAACCUAAGCGCCCGCCCGGGCGUAUGGCAACGCGGAGCCAAGCUUCGGCGCCUGCGCCGAUGGAGGUGUAGCGACUAGACGGCACCCACCUAAGGCUAACGGUAUGGUGAAGGCAUAGUCAAGGGAGGGGCGAAAGUCACACAAACCGG [C82G A111G A120C A145U C150G C169A U176G],0.00589
9,GUGCCUUGCGCCGGGAAACCACGCAAGGGAUGGUGUCAAAUUCGGCGAAACCUAAGCGCCCGCCCGGGCGUAUGGCAACGCGGAGCCAAGCUUCGGCGCCUGCGCCGAUGGAGGUGUAGCGACUAGACGGCACCCACCUAAGGCUAACGGUAUGGUGAAGGCAUAGUCAAGGGAGAGGCGAAAGUCACACAAACCGG [C82G A111G A120C A145U C150G C169A U176A],0.0119
10,GUGCCUUGCGCCGGGAAACCACGCAAGGGAUGGUGUCAAAUUCGGCGAAACCUAAGCGCCCGCCCGGGCGUAUGGCAACGCGGAGCCAAGCUUCGGCGCCUGCGCCGAUGGAGGUGUAGCGACUAGACGGCACCCACCUAAGGCUAACGUUAUGGUGAAGGCAUAGUCGAGGGAGAGGCGAAAGUCACACAAACCGG [C82G A111G A120C A145U C150U C169G U176A],0.0171
11,GUGCCUUGCGCCGGGAAACCACGCAAGGGAUGGUGUCAAAUUCGGCGAAACCUAAGCGCCCGCCCGGGCGUAUGGCAACGCGGAGCCAAGCUUCGGCGCCUGCGCCGAUGGAGGUGUAGCGACUAGACGGCACCCACCUAAGGCUAACGUUAUGGUGAAGGCAUAGUCGAGGGAGGGGCGAAAGUCACACAAACCGG [C82G A111G A120C A145U C150U C169G U176G],0.00596
12,GUGCCUUGCGCCGGGAAACCACGCAAGGGAUGGUGUCAAAUUCGGCGAAACCUAAGCGCCCGCCCGGGCGUAUGGCAACGCGGAGCCAAGCUUCGGCGCCUGCGCCGAUGGAGGUGUAGCGACUAGACGGCACCCACCUAAGGCUAACGUUAUGGUGAAGGCAUAGUCGAGGGAGCGGCGAAAGUCACACAAACCGG [C82G A111G A120C A145U C150U C169G U176C],0.0179
13,GUGCCUUGCGCCGGGAAACCACGCAAGGGAUGGUGUCAAAUUCGGCGAAACCUAAGCGCCCGCCCGGGCGUAUGGCAACGCGGAGCCAAGCUUCGGCGCCUGCGCCGAUGGAGGUGUAGCGACUAGACGGCACCCACCUAAGGCUAACGGUAUGGUGAAGGCAUAGUCUAGGGAGAGGCGAAAGUCACACAAACCGG [C82G A111G A120C A145U C150G C169U U176A],0.0078
14,GUGCCUUGCGCCGGGAAACCACGCAAGGGAUGGUGUCAAAUUCGGCGAAACCUAAGCGCCCGCCCGGGCGUAUGGCAACGCGGAGCCAAGCUUCGGCGCCUGCGCCGAUGGAGGUGUAGCGACUAGACGGCACCCACCUAAGGCUAACGGUAUGGUGAAGGCAUAGUCUAGGGAGGGGCGAAAGUCACACAAACCGG [C82G A111G A120C A145U C150G C169U U176G],0.00604
15,GUGCCUUGCGCCGGGAAACCACGCAAGGGAUGGUGUCAAAUUCGGCGAAACCUAAGCGCCCGCCCGGGCGUAUGGCAACGCGGAGCCAAGCUUCGGCGCCUGCGCCGAUGGAGGUGUAGCGACUAGACGGCACCCACCUAAGGCUAACGGUAUGGUGAAGGCAUAGUCUAGGGAGCGGCGAAAGUCACACAAACCGG [C82G A111G A120C A145U C150G C169U U176C],0.0131
